Test results reported in patent publication US20110286916A1 (published 2011).
Residue numbers refer to the chain shown, from its start.

B1: S3-009 (antibody, human IgG1, lambda, V domains shown)
VH: EVQLVQSGAEVKKPGASVKVSCKASGYNFTGYYMHWVRQAPGQGLEWMGWINPNSGGTNYAQKFQGRVTMTRDTSISTAYMELSRLRSDDTAVYYCATDSFDYWGQGTMVTVSS
VL: SYVLTQPPSVSEAPRQRVTISCSGSSSNIGNNAVSWYQQLPGKAPKTLIYYDDLLSSGVSDRFSGSRSGTSASLAISGLQSEDEADYYCAAWDDSLNGVVFGGGTKLTVLQ
notes: also called hN1S3-009; HN1S3-9
B2: WC-97 (antibody, human IgG1, lambda, V domains shown)
VH: B1 VH with T69A, T91S, Q106R, M109T
VL: QSVLTQPPSVSGAPGQRVTISCTGTSSNIGAGYDVQWYQQLPGTAPKVLMYGNSNRPSGVPDRFSGSKSGTSASLAITGLQAEDEADYYCQSYDSSLSGSLFGTGTKVTVLQ
notes: also called N1wc97; hN1wc-97
B3: WC-168 (antibody, human IgG1, lambda, V domains shown)
VH: B1 VH with Q106R, M109L
VL: not shown
notes: also called N1wc168; hN1wc-168
B4: WC-155 (antibody, human IgG1, lambda, V domains shown)
VH: B1 VH with Q106R, M109L
VL: QSVLTQPPSVSGAPGQRVTISCTGSSSNIGAGYDVLWYRQLPGTAPKLLIYGNTHRPSGVPDRFSGSNSGTSASLAITGLQAEDEADYYCQSYDSSLSGSVFGGGTKLTVLQ
notes: also called N1wc155; hN1wc-155
B5: S3-013 (antibody, human IgG1, lambda, V domains shown)
VH: B1 VH with Q106R, M109L
VL: QPVLTQPPSASGTPGQRVTISCSGSSSNIGSNYVYWYQKFPGTAPKLLIYTNNQRPSGVPDRFSGSKSGTSASLAISGLRSEDEADYYCAAWDDSLSGVVFGGGTKVTVLQ
notes: also called hN1S3-013; HN1S3-13
B6: WC-173 (antibody, human IgG1, lambda, V domains shown)
VH: B1 VH with M109T
VL: QPVLTQPPSASWTPGQRVTISCSGSSSNIGSNTVHWYRQFPGTAPQLLIYSNNQRPSGVPDRFSGSKSGTSASLAIRGLQSEDEADYYCAAWDDSLNGVVFGGGIKLTVLQ
notes: also called N1wc173; hN1wc-173
B7: S3-056 (antibody, human IgG1, lambda, V domains shown)
VH: B1 VH with E1Q, V5Q, Q106R, M109L
VL: not shown
notes: also called hN1S3-056; HN1S3-56
B8: S3-094 (antibody, human IgG1, lambda, V domains shown)
VH: B1 VH with Q106R
VL: QSVLTQPPSASGTPGQRVTISCSGGSSNIGSNTVTWYQQLPGKAPKLLIYISDQRPSGVPDRFSGSKSGTSASLAIRGLQSEDEADYYCAAWDDSLNGAVFGTGTKVTVLQ
notes: also called hN1S3-094; HN1S3-94
B9: WC-613 (antibody, human IgG1, lambda, V domains shown)
VH: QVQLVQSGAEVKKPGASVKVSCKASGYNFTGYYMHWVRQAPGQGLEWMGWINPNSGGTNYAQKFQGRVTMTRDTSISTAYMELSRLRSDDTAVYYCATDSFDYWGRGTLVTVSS
VL: SYELTQPPSASGTPGQRVTISCSGSYSNIGSNYVYWYQQLPGTAPKLLIYTNNQRPSGVPDRFSGSKSGTSASLVISGLRSDDEGDYYCAAWDDSVSVLLFGGGTKVTVLQ
notes: also called N1wc613; hN1wc-613
B10: S3-011 (antibody, human IgG1, lambda, V domains shown)
VH: B1 VH with E1Q, A9P, Q106R
VL: not shown
notes: also called hN1S3-011
B11: WC-159 (antibody, human IgG1, lambda, V domains shown)
VH: QLQLVETGGGLVKPGESLTLSCAASGFTFSSYSMNWVRQAPGKGLEWVSSISSSGSSIYYADSLKGRFTISRDNAKNSLYLQMNSLRAEDTAVYYCTRGTQWLAGVGDYWGKGTLVTVSS
VL: QSALTQPPSASASPGQSVTISCTGTSSDVGAYDSVSWYQQHPGKAPKLIIYDVNNRPSGVSNRFSGSESGNTASLTISGLQAEDEANYYCSSYRNTKTVVFGGGTKLTVLQ
notes: also called N1wc159
B12: A2780-C2-16 (antibody, human IgG1, lambda, V domains shown)
VH: EVQLVQSGAEVKKPGSSVKVSCKASGGTFSSFAFSWVRQAPGQGLDWMGRIIPILGRTNYAQKFQGRVTFTADTSTSTVYMELSSLSSEDTAVYYCARDREYSLSLGGSDYWGQGTLVTVSS
VL: QAVLTQPSSVSGAPGQRVTISCIGSSSNIGAGYDVHWYRQPPGTAPQLLIYANTNRPSGVPDRFSGSRSGTSASLAITGIQAEDEADYYCQSYDSSLSGRVFGGGTKVTVLG
notes: full IgG1/lambda chains; name tied through the DNA section of Appendix IX (same order); also called B-000000397-000M
B13: FL-SKNAS-D2-268 (antibody, human IgG1, lambda, V domains shown)
VH: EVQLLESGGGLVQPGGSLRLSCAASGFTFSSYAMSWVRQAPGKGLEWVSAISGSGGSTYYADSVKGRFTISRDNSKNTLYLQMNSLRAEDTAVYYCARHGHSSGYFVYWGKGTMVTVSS
VL: QAVLTQPSSVSGAPGQRVTISCTGTSSNIGAPYDVNWYQQLPGIAPKLLISGNTNRPSGVPDRFSGSKSGASASLAITGLQADDEADYYCQSYDHSLSGWVFGGGTKVTVLG
notes: full IgG1/lambda chains; name tied through the DNA section of Appendix IX (same order); also called B-000000395-000V
B14: FL-JEG3-C2-11 (antibody, human IgG1, lambda, V domains shown)
VH: QLQLVETGGGLVQPVGSLRLSCAASGFSFDNYAMSWVRQAPGKGLEWVSSISGSGGQIFYADSVKGRFTISRDNAKNTLVLQMNSLRVDDTAVYYCARDFYRTPGYNTNWGYWGRGTMVTVSS
VL: SYVLTQPPSVSVSPGETASISCSGDGLGNKYVAWYQQKPGQSPVLVIQQDSKRPSGIPERFSGSNSGDTATLTISGTQSLDEGDYYCQAWDRPAVIFGGGTKLTVLG
notes: full IgG1/lambda chains; name tied through the DNA section of Appendix IX (same order); also called JEG-C2-11; B-000000399-000E
B15: FL-SKNAS-C2-514 (antibody, human IgG1, lambda, V domains shown)
VH: EVQLVQSGAEVKEPGESLRISCKASGYDFSNYWIAWVRQMPGKGLEWMGIIYPGDSDTRYSPSFQGQVTISVDRSISTAYLQWSSLKASDTALYYCSRPTYWSTTWGREFDYWGQGTLVTVSS
VL: SYELTQPPSVSVSPGQTATITCSGDALPKKYAYWYQQKSGQAPVLVVYEDSKRPSGIPERFSGSSSGTMATLTISGAQVEDEADYYCYSTDSSGNHWVFGGGTKLTVLG
notes: full IgG1/lambda chains; name tied through the DNA section of Appendix IX (same order); also called B-000000402-000X

biological target: T1, Notch1 extracellular fragment (amino acid 19-526) Fc fusion protein, R&D Systems 3647-TK (human, UniProt P46531 19-526); experiment: BIAcore SPR, Notch1/Fc on CM5, Mab analyte, 1:1 binding
T1 construct: bought protein; also called Notch1/Fc; Notch1-ECD Fc fusion protein; not shown: Fc of the bought fusion protein
Description: All experiments were performed at 25° C. at a flow rate of 40 μl/min. […] FC1 was used as the reference cell. Specific signals were the results of differences of signals obtained on FC2 versus FC1. […] The dissociation phase of the analyte was monitored over a period of time ranging 10-30 minutes. Running buffer was also injected under the same conditions as a reference.
Equilibrium dissociation constant (KD) was calculated by the ratio between dissociation (koff) and association (kon) rate constants.

Kd | koff | kon | Binder
5.23 nM | 0.00268 s⁻¹ | 513000 M⁻¹ s⁻¹ | B1
7.87 nM | 0.000438 s⁻¹ | 55600 M⁻¹ s⁻¹ | B2
4.7 nM | 0.00228 s⁻¹ | 486000 M⁻¹ s⁻¹ | B3
1.74 nM | 0.00029 s⁻¹ | 166000 M⁻¹ s⁻¹ | B4
4.92 nM | 0.00294 s⁻¹ | 597000 M⁻¹ s⁻¹ | B5
3.27 nM | 0.000447 s⁻¹ | 137000 M⁻¹ s⁻¹ | B6
5.65 nM | 0.00292 s⁻¹ | 517000 M⁻¹ s⁻¹ | B7
3.89 nM | 0.00163 s⁻¹ | 420000 M⁻¹ s⁻¹ | B8
1.09 nM | 0.000258 s⁻¹ | 237000 M⁻¹ s⁻¹ | B9

biological target: T2, human Notch3-Gal4 chimeric receptor on U2OS FlpIn TREx cells (human, UniProt Q9UM47 40-2321); experiment: cell-based or functional assay

hN3, inhibition of Luc activity at [166 nM] Mab | Binder
< 20% | B1
< 10% | B2
< 10% | B3
< 10% | B4
< 10% | B5
< 20% | B6
< 10% | B10
< 10% | B7
< 10% | B8
< 10% | B11
< 10% | B9

biological target: T3, human full-length Notch1 with C-terminal FLAG tag, stably expressed on 293 FlpIn (TREx) cells (human, UniProt P46531 19-2555); experiment: FACS, hN1 293 cells, MFI grade (++ 101-500)
T3 construct: tetracycline/doxycycline-induced expression from pcDNA5/FRT/TO-HN1+FLAG; also called hN1; 293_N1
Description: (§1) Notch 293 FlpIn (TREx) cells were treated with dox (2 ug/ml) for two days to induce Notch expression before collecting them for FACS surface expression analysis. The cells were harvested from tissue culture flasks using Trypsin for 15 min, centrifuged at 1200 rpm for 10 minutes and resuspended in 2 ml PBS with 2% fetal bovine serum (2% FBS/PBS). The cells were counted, adjusted to 10⁷ cells/ml and 0.1 ml of cells was incubated with 1 ug of each Mab for 40 minutes at 4° C. The cells were washed, resuspended in 0.1 ml 2% FBS/PBS and incubated with 1 ug R-PE-conjugated goat anti-human Ig (Jackson ImmunoResearch) for 30 minutes at 4° C. Cells were washed, resuspended in 0.3 ml PBS with 10% formaldehyde and analyzed on a FACSCalibur (Becton Dickinson, Mt View, Calif.).

MFI | Binder
101 to 500 mfi | B1
101 to 500 mfi | B4
101 to 500 mfi | B6
101 to 500 mfi | B10
101 to 500 mfi | B8
101 to 500 mfi | B9

biological target: T1, Notch1 extracellular fragment (amino …); experiment: titration ELISA, antigen coated, purified IgG1
Description: Plates were blocked with 300 ul of milk blocker per well and incubated for 2 hour at RT. […] After washing plates with PBS or TBS buffer, anti-human lambda light chain antibody with HRP was used for detection antibody and absorbance at 450 nm was read with a plate reader.

EC50 | Binder
0.12 nM | B11

biological target: T2, human Notch3-Gal4 chimeric receptor on …; experiment: cell-based or functional assay; remark: another data set of the same source

hN3, inhibition of Luc activity at [166 nM] Mab | Binder
< 15% | B12
< 5% | B13
< 5% | B14
< 5% | B15

biological target: T3, human full-length Notch1 with …; experiment: FACS, hN1 293 cells, MFI grade (++++ >1000)
Description: as §1
Clones were analyzed as described in Section I-Example 12. We analyzed the corresponding Mabs for their binding to 293-N1, -N3 and 293 parental cells by flow cytometry.

MFI | Binder
> 1000 mfi | B12
> 1000 mfi | B13
> 1000 mfi | B14
> 1000 mfi | B15

biological target: T3, human full-length Notch1 with …; experiment: FACS, hN1 293 cells, MFI grade (+ 11-100)
Description: as §1

MFI | Binder
11 to 100 mfi | B2
11 to 100 mfi | B3
11 to 100 mfi | B5
11 to 100 mfi | B7
